From US20040014178A1 (published 2004)

Legend:
[1] = target: T1, human recombinant von Willebrand factor (human, UniProt P04275 764-2813); experiment: blot of vWb on nitrocellulose probed with 125I-labelled vWF
T1 construct: also called rvWf; rvWF

[2] = target: T1, human recombinant von Willebrand factor; experiment: phagemid clone isolated by panning the S. lugdunensis library against vWF

Row | Binder | binding result [1] | binding result [2]
1 | vWb (von Willebrand factor binding protein) from S. aureus, wild type secreted protein (other, Purified from the culture supernatant of S. aureus Newman with the Eap gene deleted; also called wild type vWb; purified secreted vWb protein) VVSGEKNPYVSESLKLTNNKNKSRTVEEYKKSLDDLIWSFPNLDNERFDNPEYKEAMKKYQQRFMAEDEALKKFFSEEKKIKNGNTDNLDYLGLSHERYESVFNTLKKQSEEFLKEIEDIKKDNPELKDFNEEEQLKCDLELNKLENQILMLGKTFYQNYRDDVESLYSKLDLIMGYKDEERANKKAVNKRMLENKKEDLETIIDEFFSDIDKTRPNNIPVLEDEKQEEKNHKNMAQLKSDTEAAKSDESKRSKRSKRSLNTQNHKPASQEVSEQQKAEYDKRAEERKARFLDNQKIKKTPVVSLEYDFEHKQRIDNENDKKLVVSAPTKKPTSPTTYTETTTQVPMPTVERQTQQQIIYNAPKQLAGLNGESHDFTTTHQSPTTSNHTHNNVVEFEETSALPGRKSGSLVGISQIDSSHLTEREKRVIKREHVREAQKLVDNYKDTHSYKDRINAQQKVNTLSEGHQKRFNKQINKVYNGK | binds | –
2 | phagemid clone SlvW2 (vWbl fragment displayed on phagemid particles) (other) GNEVQETEEGTHDAPGIIGDKWQYTGQTTTEDGITTHIYQRIQSEIPNEAPQETPVALEVTRYVDSEGN | – | binds
